This assay has as its target E. coli biotin carboxyl carrier protein (His-BCCP), subunit of acetyl-CoA carboxylase (E. coli) (UniProt P0ABD8).

Sequence of GlnB (PII) from Synechococcus elongatus PCC7942, wild type (P0A3F4 whole entry): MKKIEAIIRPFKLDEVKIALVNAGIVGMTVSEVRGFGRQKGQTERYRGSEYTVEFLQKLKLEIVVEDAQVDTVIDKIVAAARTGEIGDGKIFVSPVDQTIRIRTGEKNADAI

Turning to “GlnB (PII) from Synechococcus elongatus PCC7942, wild type (from UniProt P0A3F4 1-112) (natural protein)”, the EC50 of inhibition of reconstituted E. coli ACC activity by increasing GlnB (coupled PK/LDH assay, 10 mM ATP) came out at 0.31 µM and the maximum inhibition of reconstituted E. coli ACC activity (coupled PK/LDH assay, 10 mM ATP) is 93%.

(Values after publication PMC5080355, “Interaction of the Nitrogen Regulatory Protein GlnB (PII) with Biotin Carboxyl Carrier Protein (BCCP) Controls Acetyl-CoA Levels in the Cyanobacterium Synechocystis sp. PCC 6803” (Frontiers in Microbiology, 2016).)
